Measured values as given in US20190309034A1 (Boehringer Ingelheim, published 2019).
Each block holds one binder with its values, some of them ahead of it.

What was measured:
[1] = target: T1, Recombinant soluble trimeric human BAFF (furin-cleaved human BAFF 134-285) (human, UniProt Q9Y275 134-285); experiment: cell-based or functional assay
[2] = target: T2, Recombinant soluble 60-mer human BAFF (His-HuBAFF 134-285) (human, UniProt Q9Y275 134-285); experiment: cell-based or functional assay
[3] = target: T1, Recombinant soluble trimeric human BAFF …; experiment: cell-based or functional assay; remark: listed apart in the source
[4] = target: T2, Recombinant soluble 60-mer human BAFF …; experiment: cell-based or functional assay; remark: listed apart in the source
[5] = target: T3, Human membrane-bound BAFF (mbBAFF) (human, UniProt Q9Y275 1-285); experiment: cell-based or functional assay
[6] = target: T1, Recombinant soluble trimeric human BAFF …; experiment: cell-based or functional assay; remark: listed apart in the source
[7] = target: T3, Human membrane-bound BAFF (mbBAFF); experiment: cell-based or functional assay; remark: listed apart in the source
[8] = target: T1, Recombinant soluble trimeric human BAFF …; experiment: SPR, antibody captured on Protein A/G, soluble trimeric BAFF flowed over, 1:1 Langmuir global fit, apparent affinity (at detection limit)
Description: (§1) Apparent binding affinities were evaluated using surface plasmon resonance where the antibodies were captured at different surface densities on a Protein A/G surface. Soluble trimeric BAFF at different concentrations were flowed over the captured antibody. Clinical reference antibodies (Reference 1 comprising SEQ ID NOS: 98 and 116) and Reference 2 comprising SEQ ID NOS: 99 and 117) were used as comparators.

[9] = target: T1, Recombinant soluble trimeric human BAFF …; experiment: SPR, antibody captured on Protein A/G, soluble trimeric BAFF flowed over, 1:1 Langmuir global fit, apparent affinity
Description: as §1

- Soluble trimeric huBAFF (52 pM) Neutralization IC90 [1]: 290 pM
- Soluble 60-mer huBAFF (4.2 pM) Neutralization IC90 [2]: 21 pM
- Soluble trimeric huBAFF (50 pM) Neutralization IC90 [3]: 290 pM
- Soluble 60-mer huBAFF (4 pM) Neutralization IC50 [4]: 40 pM
- Soluble 60-mer huBAFF (4 pM) Neutralization IC90 [4]: 102 pM
- Potent mbBAFF Neutralization IC50 [5]: 0.177 nM
- Potent mbBAFF Neutralization IC90 [5]: 1.05 nM
- IC50 (neutralisation of soluble trimeric huBAFF activation of human BAFFR, luciferase reporter CHO cells) [6]: 0.12 nM
- IC50 (neutralisation of mbBAFF activation of human BAFFR, fixed mbBAFF-CHO mixed with luciferase reporter BAFFR-CHO cells) [7]: 0.21 nM
- Kd [8]: < 0.01 nM
B1: Reference 1 (antibody, human IgG4 S228P, kappa, V domains shown)
VH: QVQLQQWGAGLLKPSETLSLTCAVYGGSFSGYYWSWIRQPPGKGLEWIGEINHSGSTNYNPSLKSRVTISVDTSKNQFSLKLSSVTAADTAVYYCARGYYDILTGYYYYFDYWGQGTLVTVSS
VL: EIVLTQSPATLSLSPGERATLSCRASQSVSRYLAWYQQKPGQAPRLLIYDASNRATGIPARFSGSGSGTDSTLTISSLEPEDFAVYYCQQRSNWPRTFGQGTKVEIKR
notes: Comparator anti-BAFF antibody

- Soluble trimeric huBAFF (52 pM) Neutralization IC90 [1]: 1000 pM
- Soluble trimeric huBAFF (50 pM) Neutralization IC90 [3]: 1000 pM
- Soluble 60-mer huBAFF (4 pM) Neutralization IC50 [4]: 38300 pM
- Soluble 60-mer huBAFF (4 pM) Neutralization IC90 [4]: 198000 pM
- Potent mbBAFF Neutralization IC50 [5]: 2.18 nM
- Potent mbBAFF Neutralization IC90 [5]: 151 nM
- IC50 (neutralisation of soluble trimeric huBAFF activation of human BAFFR, luciferase reporter CHO cells) [6]: 0.22 nM
- IC50 (neutralisation of mbBAFF activation of human BAFFR, fixed mbBAFF-CHO mixed with luciferase reporter BAFFR-CHO cells) [7]: 8.6 nM
- Kd [9]: 0.0222 nM
B2: Reference 2 (antibody, human IgG1, lambda, V domains shown)
VH: QVQLQQSGAEVKKPGSSVRVSCKASGGTFNNNAINWVRQAPGQGLEWMGGIIPMFGTAKYSQNFQGRVAITADESTGTASMELSSLRSEDTAVYYCARSRDLLLFPHHALSPWGRGTMVTVSS
VL: SSELTQDPAVSVALGQTVRVTCQGDSLRSYYASWYQQKPGQAPVLVIYGKNNRPSGIPDRFSGSSSGNTASLTITGAQAEDEADYYCSSRDSSGNHWVFGGGTELTVLG
notes: Comparator anti-BAFF antibody
